This is an account of results in patent US20230338477A1 (published 2023).

In this test the target is T1, human transferrin receptor 1 (hTfR) (human, UniProt P02786 89-760, limits assumed).
T1 construct: also called TFRC; transferrin receptor protein 1
The test can be described thus: in vitro binding screen, method not described.

T1 sequence (P02786 89-760 limits assumed): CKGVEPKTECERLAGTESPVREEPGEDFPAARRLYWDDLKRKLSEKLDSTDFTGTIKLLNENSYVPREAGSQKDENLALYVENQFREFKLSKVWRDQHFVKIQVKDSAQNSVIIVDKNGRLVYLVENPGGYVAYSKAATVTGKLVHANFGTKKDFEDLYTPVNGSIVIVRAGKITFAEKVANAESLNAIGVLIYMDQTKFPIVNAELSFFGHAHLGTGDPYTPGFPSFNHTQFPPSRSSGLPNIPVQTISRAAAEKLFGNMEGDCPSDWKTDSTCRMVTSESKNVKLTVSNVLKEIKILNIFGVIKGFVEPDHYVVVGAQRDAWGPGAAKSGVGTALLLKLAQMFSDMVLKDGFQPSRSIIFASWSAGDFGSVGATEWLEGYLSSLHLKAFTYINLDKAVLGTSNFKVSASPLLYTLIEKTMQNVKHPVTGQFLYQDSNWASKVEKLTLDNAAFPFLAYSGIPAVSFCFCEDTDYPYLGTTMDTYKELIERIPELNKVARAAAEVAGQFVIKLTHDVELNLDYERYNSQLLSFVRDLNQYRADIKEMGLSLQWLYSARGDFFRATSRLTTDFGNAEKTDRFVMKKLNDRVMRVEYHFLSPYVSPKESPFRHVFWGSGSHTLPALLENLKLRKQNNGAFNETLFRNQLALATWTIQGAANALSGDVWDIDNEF

B1: 69348 (antibody, V domains shown)
VH: QVQLVESGGGVVQPGRSLRLSCAASGFTFTTYGMHWVRQAPGKGLEWVAVIWYDGSNKYYGDSVKGRFTISRDNSKNTLYLQMNSLRVDDTAVYYCTRTHGYTRSSDGFDYWGQGTLVTVSS
VL: DIQMTQSPSSLSASVGDRVTITCRASQSIRNVLGWFQQKPGKAPQRLIYAASSLQSGVPSRFSGSGSGTEFTLTISSLQPEDFATYYCLQHNFYPLTFGGGTKVEIK
notes: Anti-hTfR antibody of the initial screen; only variable domains are tied to it
Take B1: the binding result is on record as “binds”.

B2: 69331 (antibody, V domains shown)
VH: QVQLVESGGGVVQPGRSLRLSCIASGFTFSVYGIHWVRQAPGKGLEWMAVISHDGNIKHYADSVKGRFTISRDNSKNTLYLQINSLRTEDTAVYYCAKDTWNSLDTFDIWGQGTMVTVSS
VL: DIQLTQSPSSLSASVGDRVTITCWASQGISSYLAWYQQKPGKAPKLLIYAASTLQSGVPSRFSGSGSGTEFTLTISSLQPEDFATYYCQQLNSYPLTFGGGTKVEIK
notes: as for B1
For the molecule B2, the binding result was “binds”.

B3: 69263 (antibody, V domains shown)
VH: EVQLVESGGGLVQPGRSLRLSCAVSGFTFDDYAMHWVRQAPGKGLEWVSGISWNSGTRGYADSVKGRFTISRDNAKNSLYLQMNSLRGEDTALYYCVKDITISPNYYGMDVWGQGTTVTVSS
VL: DIQMTQSPSSLSASVGDRVTITCRASQDISHYSAWYQQKPGKLPNLLIYAASTLQSGVPSRFSGSGSGTDFSLTTSSLQPEDVATYYCQKYNSVPLTFGGGTKVEIK
notes: as for B1
Turning to B3, the binding result is “binds”.

B4: 69326 (antibody, V domains shown)
VH: EVQLVESGGGLVQPGGSLRLSCAVSGFIFSSYEMNWVRQAPGKGLEWVSYISSSGSTIFYADSVKGRFTISRDNAKNSLYLQMNSLRAEDTAVYYCVSGVVLFDVWGQGTMVTVSS
VL: EIVMTQSPATLSVSPGERATLSCRASQSVSSNFAWYQQKPGQAPRLLIYSASSRATGIPVRFSGSGSGTEFTLTISSLQSEDFAVYYCQQYNIWPRTFGQGTKVEIK
notes: as for B1
As to B4, the binding result is listed as “binds”.

B5: 69340 (antibody, V domains shown)
VH: EVQLVESGGGLVQPGRSLRLSCAASGFTFDDKAMHWVRQVPGKGLEWISGISWNSGTIGYADSVKGRFIISRDNAKNSLYLQMNSLRAEDTALYYCAKDGDTSGWYWYGLDVWGQGTTVTVSS
VL: EIVLTQSPATLSLSPGERATLSCRASQSVSSYLAWYQQKPGQAPRLLIHDVSNRATGIPARFSGSGSGTDFTLTISSLEPEDFVVYYCQQRSDWPITFGQGTRLEIK
notes: as for B1
With B5, the binding result was “binds”.

B6: 69332 (antibody, V domains shown)
VH: QVTLRESGPALVKPSQTLTLTCTFSGFSLNTYGMFVSWIRQPPGKALEWLAHIHWDDDKYYSTSLKTRLTISKDTSKNQVVLTMTNMDPVDTATYYCARGHNNLNYIIHWGQGTLVTVSS
VL: AIQMTQSPSSLSASVGDRVTITCRASQGIRNDLGWYQQKPGKAPKLLIYAASTLQSGVPSRFSGSGSGTDFTLTISSLQPEDFATYYCLQDYNYPFTFGPGTKVDIK
notes: as for B1
As to B6, the binding result was “binds”.
